# In the supplement of paper PMC10724198:
# ± gives the standard deviation of the averaged measurements.
# Legend:
# [1] = system: Saccharomyces cerevisiae; test: protein stability index of tFT-peptide fusion (C-terminal peptide) (PSI (0-1 scale)); higher = more stable (slower turnover)
# Method: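 MPS profiling in S. cerevisiae of the tFT-X12 degron library: putative degron peptides plus stable controls, 12 aa, fused to the C-terminus of a sfGFP-mCherry timer. Cells are FACS-sorted into 8 mCherry/sfGFP bins and deep-sequenced. PSI runs from 0 (unstable) to 1 (stable). Backgrounds are wild type, das1Δ and doa10Δ at 30 °C, and wild type, das1Δ, cdc34-1 and cdc53-1 at 37 °C; 2-3 technical replicates each.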
# [2] = system: Saccharomyces cerevisiae; test: as above; settings: genetic background: wild type; temperature: 30 C
# [3] = genetic background: cdc34-1, temperature: 37 C
# [4] = genetic background: cdc53-1, temperature: 37 C
# [5] = genetic background: das1 deletion, temperature: 30 C
# [6] = genetic background: das1 deletion, temperature: 37 C
# [7] = genetic background: doa10 deletion, temperature: 30 C
# [8] = genetic background: wild type, temperature: 30 C
# [9] = genetic background: wild type, temperature: 37 C
# 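Note: PSI is a weighted mean of sequencing reads over stability bins, variants kept only with over 10 reads, mCherry proximal and sfGFP distal, peptide attached via GGGS linker.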
sequence,measurement,setting,value
RDTTQRRRKTAA,protein stability index,[1]; [3],0.657 ± 0.039
same,protein stability index,[1]; [4],0.662 ± 0.026
same,protein stability index,[1]; [5],0.6608 ± 0.0048
same,protein stability index,[1]; [6],0.6583 ± 0.005
same,protein stability index,[1]; [7],0.443 ± 0.0084
same,protein stability index,[1]; [8],0.448 ± 0.012
same,protein stability index,[1]; [9],0.60824 ± 0.00016
RWRLWGGWWVVG,protein stability index,[1]; [3],0.601 ± 0.028
same,protein stability index,[1]; [4],0.727 ± 0.012
same,protein stability index,[1]; [5],0.579 ± 0.022
same,protein stability index,[1]; [6],0.718 ± 0.017
same,protein stability index,[1]; [7],0.191 ± 0.019
same,protein stability index,[1]; [8],0.196 ± 0.022
same,protein stability index,[1]; [9],0.419 ± 0.015
TGPVFVSFRLLH,protein stability index,[1]; [3],0.703 ± 0.065
same,protein stability index,[1]; [4],0.752 ± 0.012
same,protein stability index,[1]; [5],0.67 ± 0.066
same,protein stability index,[1]; [6],0.737 ± 0.024
same,protein stability index,[1]; [7],0.384 ± 0.015
same,protein stability index,[1]; [8],0.405 ± 0.035
same,protein stability index,[1]; [9],0.627 ± 0.0095
TLDCKFGRGGIG,protein stability index,[1]; [3],0.309 ± 0.015
same,protein stability index,[1]; [4],0.423 ± 0.013
same,protein stability index,[1]; [5],0.332 ± 0.0069
same,protein stability index,[1]; [6],0.401 ± 0.017
same,protein stability index,[1]; [7],0.325 ± 0.0077
same,protein stability index,[1]; [8],0.321 ± 0.013
same,protein stability index,[1]; [9],0.392 ± 0.0016
WGIQGIKFFVGA,protein stability index,[2],0.7111 ± 0.0032
WGISRSLRPGEV,protein stability index,[2],0.739 ± 0.12
WGQSMFSLLVSI,protein stability index,[2],0.542 ± 0.035
WGRRVRVEGVVL,protein stability index,[2],0.613 ± 0.022
WGSGGGRDGCGV,protein stability index,[2],0.655 ± 0.083
WGTVIYGVGSGQ,protein stability index,[2],0.691 ± 0.036
WGVCVIDSWQEG,protein stability index,[2],0.6706 ± 0.0032
WGVGVCSRVLRS,protein stability index,[2],0.674 ± 0.026
WGVVAVSGRLGA,protein stability index,[2],0.78 ± 0.012
WGWGVGWSGACL,protein stability index,[2],0.7116 ± 0.0017
WGWGVLRRRVGA,protein stability index,[2],0.76 ± 0.082
WGWGWWEMVGRT,protein stability index,[2],0.674 ± 0.0039
WGWSGGEDCLEG,protein stability index,[2],0.64 ± 0.0073
WHDCLYLWADLG,protein stability index,[2],0.693 ± 0.04
WILFQAGSREIR,protein stability index,[2],0.701 ± 0.017
WISARQHQKTRL,protein stability index,[2],0.702 ± 0.065
WKQEKYTFKKRT,protein stability index,[2],0.707 ± 0.032
WLFAILPSRLIA,protein stability index,[1]; [3],0.284 ± 0.021
same,protein stability index,[1]; [4],0.373 ± 0.0075
same,protein stability index,[1]; [5],0.344 ± 0.035
same,protein stability index,[1]; [6],0.488 ± 0.0068
same,protein stability index,[1]; [7],0.0644 ± 0.0086
same,protein stability index,[1]; [8],0.0673 ± 0.012
same,protein stability index,[1]; [9],0.0638 ± 0.0027
WLFGSFSLLFWL,protein stability index,[2],0.522 ± 0.015
WLFVALRGRFEF,protein stability index,[2],0.59 ± 0.042
WLKVRINFYKRK,protein stability index,[2],0.52 ± 0.038
WLRCGCVKWAGG,protein stability index,[2],0.657 ± 0.013
WLVPLDYKEGVV,protein stability index,[2],0.687 ± 0.035
WNQRMEPCLMSS,protein stability index,[2],0.65 ± 0.026
WPASLCRLGSVH,protein stability index,[2],0.64894 ± 0.00014
WPGRTGANTRSG,protein stability index,[2],0.671 ± 0.11
WPLLLHLLHLLR,protein stability index,[2],0.697 ± 0.12
WPLPRPEFCGAP,protein stability index,[2],0.6316 ± 0.0011
WPLVGLIGVPGR,protein stability index,[2],0.668 ± 0.035
WPMYSVIKAQLK,protein stability index,[2],0.638 ± 0.015
WPPPPPPPASPH,protein stability index,[2],0.719 ± 0.071
WPRPSLPPLYAP,protein stability index,[2],0.685 ± 0.051
WPYDRHTRHRET,protein stability index,[2],0.767 ± 0.092
WPYEPGSSIVNG,protein stability index,[2],0.717 ± 0.01
WRKMSNDIRGRW,protein stability index,[2],0.799 ± 0.11
WRLAVDLGRFCT,protein stability index,[2],0.617 ± 0.16
WRSGLRGPAIYG,protein stability index,[2],0.707 ± 0.018
WRSLVTVSTTAC,protein stability index,[2],0.558 ± 0.042
WSLGLVGRGFWG,protein stability index,[2],0.73 ± 0.11
WSLGRRKLLHRI,protein stability index,[2],0.666 ± 0.064
WSLLLLPEFSLR,protein stability index,[2],0.705 ± 0.012
WSVGYLSVALYR,protein stability index,[2],0.615 ± 0.014
WSWEVTSSVCRI,protein stability index,[2],0.732 ± 0.058
WTFPWICFLGFG,protein stability index,[2],0.589 ± 0.029
WTRFSEKIVILR,protein stability index,[2],0.582 ± 0.026
WVGRGGAVENKV,protein stability index,[2],0.718 ± 0.03
WVLRRVGTVVYL,protein stability index,[2],0.585 ± 0.018
WVLSYVPEIGRL,protein stability index,[2],0.741 ± 0.035
